In publication PMC12298754:

Experiments:
[1] = biological target: PD-L1 protein on 4T1 cells (programmed cell death ligand-1) (mouse (endogenous in 4T1)) (UniProt Q9EP73); test: radioligand binding; competition on 4T1 cells adhered to 96-well plates, 37 °C, 1 h; [18F]AlF-NOTA-iPD-L1 constant at 1 ng/20 kBq; unlabeled peptides 10 to 0.00001 mM; washed with pH 7.4 buffer (0.1% BSA, 25 mM Tris-HCl, 1 mM CaCl2, 120 mM NaCl); corrected for non-specific binding with …; n = 3
[2] = biological target: PD-L1 protein on 4T1 cells (programmed cell death ligand-1) (mouse (endogenous in 4T1)) (UniProt Q9EP73)

Sequence of UniProt Q9EP73 (Q9EP73 19-290): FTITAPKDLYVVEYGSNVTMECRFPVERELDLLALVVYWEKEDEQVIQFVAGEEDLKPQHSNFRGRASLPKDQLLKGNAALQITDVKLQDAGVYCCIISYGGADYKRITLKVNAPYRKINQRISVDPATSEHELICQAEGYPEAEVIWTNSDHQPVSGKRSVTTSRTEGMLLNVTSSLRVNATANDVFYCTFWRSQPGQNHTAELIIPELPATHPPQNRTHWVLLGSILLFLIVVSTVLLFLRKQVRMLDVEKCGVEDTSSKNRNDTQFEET

| Substance | IC50 [1] | tumor uptake at 1 h in mice with 4T1 tumors that received a blocking dose of cold iPD-L1 30 min before (% ID/g) [2] | tumor uptake in mice with induced PD-L1-positive 4T1 tumors, 1, 2 and 3 h after injection (% ID/g) [2] |
| --- | --- | --- | --- |
| AlCl-NOTA-iPD-L1 (peptide) | 9.27 nM | – | – |
| [18F]AlF-NOTA-iPD-L1 (peptide) | – | 1.81 % ID/g | 6.54 % ID/g |
| WL12 (peptide) | 6.08 nM | – | – |
